Assay results from PMC6796883.
pKd: −log10 of the molar value.

Assays:
Experiment in all cases: ITC; 25 °C, MicroCal PEAQ-ITC; 50 μM protein in the cell titrated with 17 injections of 750 μM peptide; in the absence of NAD+; 'one set of binding sites' model
[1] = molecular target: SIRT1Δ (human SIRT1 NAD+-dependent deacetylase domain 234-510 with C-terminal regulatory region 641-665) (human) (UniProt Q96EB6)
[2] = molecular target: CobBΔ (E. coli CobB residues 38-279) (E. coli) (UniProt P75960)
[3] = molecular target: SIRT2Δ (human SIRT2 residues 34-356) (human) (UniProt Q8IXJ6)
SIRT2Δ (human SIRT2 residues 34-356) (human), sequence (Q8IXJ6 34-356, stated change not applied): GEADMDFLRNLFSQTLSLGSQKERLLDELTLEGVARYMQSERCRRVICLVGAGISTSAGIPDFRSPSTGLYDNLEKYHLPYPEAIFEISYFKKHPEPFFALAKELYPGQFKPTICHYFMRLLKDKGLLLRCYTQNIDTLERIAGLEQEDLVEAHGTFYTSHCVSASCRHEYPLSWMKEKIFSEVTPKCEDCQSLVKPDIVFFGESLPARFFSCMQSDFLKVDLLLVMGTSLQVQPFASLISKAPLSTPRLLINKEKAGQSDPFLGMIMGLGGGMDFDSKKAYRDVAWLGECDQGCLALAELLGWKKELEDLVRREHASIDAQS

[4] = molecular target: SIRT6 (human SIRT6 residues 1-355) (human) (UniProt Q8N6T7)
SIRT6 (human SIRT6 residues 1-355) (human), sequence (Q8N6T7 whole entry, the tested form may be a part): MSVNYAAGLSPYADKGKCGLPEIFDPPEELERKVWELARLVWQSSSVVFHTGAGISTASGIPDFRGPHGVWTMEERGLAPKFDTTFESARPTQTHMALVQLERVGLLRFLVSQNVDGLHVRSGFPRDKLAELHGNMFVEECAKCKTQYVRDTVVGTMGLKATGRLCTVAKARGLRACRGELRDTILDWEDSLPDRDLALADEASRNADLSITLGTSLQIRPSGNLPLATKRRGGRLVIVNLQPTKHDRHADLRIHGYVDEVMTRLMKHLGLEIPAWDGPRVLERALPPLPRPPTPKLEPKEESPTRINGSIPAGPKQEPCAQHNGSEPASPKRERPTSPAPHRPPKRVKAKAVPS

[5] = molecular target: SIRT5Δ (human SIRT5 residues 34-302) (human) (UniProt Q9NXA8)
SIRT5Δ (human SIRT5 residues 34-302) (human), sequence (Q9NXA8 34-302, stated change not applied): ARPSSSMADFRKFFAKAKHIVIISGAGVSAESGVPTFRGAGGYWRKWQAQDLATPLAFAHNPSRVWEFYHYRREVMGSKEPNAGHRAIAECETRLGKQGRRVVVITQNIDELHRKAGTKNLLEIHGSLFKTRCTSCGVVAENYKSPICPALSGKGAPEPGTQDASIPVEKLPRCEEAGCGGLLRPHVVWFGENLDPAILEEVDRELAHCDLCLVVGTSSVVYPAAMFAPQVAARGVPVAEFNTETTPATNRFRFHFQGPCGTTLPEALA

Substance	pKd [1]	pKd [2]	pKd [3]	pKd [4]	pKd [5]
histone H3(1-15)K9cr peptide (from UniProt P68431 2-16)	4.34				
histone H3(1-15)K9pr peptide (from UniProt P68431 2-16)		6.10	3.98		
histone H3(1-15)K9hex peptide (from UniProt P68431 2-16)		6.52			
histone H3(1-15)K9dod peptide (from UniProt P68431 2-16)	5.31	7.22	5.16		
histone H3(1-15)K9dec peptide (from UniProt P68431 2-16)	5.15	6.70		4.26	
histone H3(1-15)K9ac peptide (from UniProt P68431 2-16)				3.99	3.82
histone H3(1-15)K9bu peptide (from UniProt P68431 2-16)		6.70			
histone H3(1-15)K9myr peptide (from UniProt P68431 2-16)		7.30	6.10		
histone H3(1-15)K9oct peptide (from UniProt P68431 2-16)		6.70		6.15	
